Like-named read-outs stand apart in the source and are kept apart here.
Legend:
[1] = molecular target: ComR from Streptococcus thermophilus LMD-9 (ComR-StreptagII, wild type) (Streptococcus thermophilus LMD-9); assay: ITC; peptide 500 μM in the syringe, ComR 50 μM in the cell; 20°C; 20 mM Tris-HCl pH 8.0, 150 mM NaCl, 1 mM EDTA; one-binding-site model; apparent KD (peptide binding and dimerization not told apart)
[2] = molecular target: ComR from Streptococcus thermophilus LMD-9 (ComR-StreptagII, wild type) (Streptococcus thermophilus LMD-9); assay: as above; remark: listed apart in the source
[3] = molecular target: ComR K100A (ComR-StreptagII mutant) (Streptococcus thermophilus LMD-9); assay: as above
[4] = molecular target: ComR Y91A (ComR-StreptagII mutant) (Streptococcus thermophilus LMD-9); assay: as above
[5] = molecular target: ComR R92A (ComR-StreptagII mutant) (Streptococcus thermophilus LMD-9); assay: as above
[6] = molecular target: ComR K87A/K246A (ComR-StreptagII double mutant) (Streptococcus thermophilus LMD-9); assay: as above
[7] = molecular target: ComR F171A/Y174A (ComR-StreptagII double mutant) (Streptococcus thermophilus LMD-9); assay: as above
[8] = molecular target: ComR T90A (ComR-StreptagII mutant) (Streptococcus thermophilus LMD-9); assay: as above
ComR WT [9] = molecular target: T1, ComR WT (Streptococcus thermophilus LMD-9, UniProt PDB:5JUB_1 1-310); assay: EMSA; XIP 0.2-1.2 uM; ComR 4 uM; EMSA: 20 mM Tris-HCl pH 8.0, 150 mM NaCl, 1 mM EDTA, 10% glycerol, 1 mg/ml BSA, 37 C 10 min, 40 ng DNA in 20 ul; crystal: 30% PEG 550 MME, 0.1 M MgCl2, 0.05 M Tris-HCl pH 8.5, 18 C; conditions: protein: recombinant; tags: C-terminal StreptagII; chain copies: 2; label: Cy3 (Methods: Alexa 555), direct strand; blunt
T1 sequence: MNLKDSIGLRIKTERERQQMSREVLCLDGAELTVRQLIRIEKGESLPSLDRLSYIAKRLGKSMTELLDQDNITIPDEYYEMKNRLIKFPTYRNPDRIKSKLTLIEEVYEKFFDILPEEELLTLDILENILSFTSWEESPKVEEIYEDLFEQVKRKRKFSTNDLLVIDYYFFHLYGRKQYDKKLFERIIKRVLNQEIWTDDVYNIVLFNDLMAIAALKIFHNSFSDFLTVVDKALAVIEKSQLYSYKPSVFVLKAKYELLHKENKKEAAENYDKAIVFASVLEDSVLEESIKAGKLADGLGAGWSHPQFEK

ComR K87A/K246A = molecular target: T2, ComR K87A/K246A (Streptococcus thermophilus LMD-9, UniProt PDB:5JUB_1 1-310, K87A;K246A); assay: EMSA; XIP up to 1.2 uM; ComR 4 uM; EMSA: 20 mM Tris-HCl pH 8.0, 150 mM NaCl, 1 mM EDTA, 10% glycerol, 1 mg/ml BSA, 37 C 10 min, 40 ng DNA in 20 ul; crystal: 30% PEG 550 MME, 0.1 M MgCl2, 0.05 M Tris-HCl pH 8.5, 18 C; conditions: protein: recombinant; tags: C-terminal StreptagII; chain copies: 2; label: Cy3 (Methods: Alexa 555), direct strand; blunt
T2 sequence: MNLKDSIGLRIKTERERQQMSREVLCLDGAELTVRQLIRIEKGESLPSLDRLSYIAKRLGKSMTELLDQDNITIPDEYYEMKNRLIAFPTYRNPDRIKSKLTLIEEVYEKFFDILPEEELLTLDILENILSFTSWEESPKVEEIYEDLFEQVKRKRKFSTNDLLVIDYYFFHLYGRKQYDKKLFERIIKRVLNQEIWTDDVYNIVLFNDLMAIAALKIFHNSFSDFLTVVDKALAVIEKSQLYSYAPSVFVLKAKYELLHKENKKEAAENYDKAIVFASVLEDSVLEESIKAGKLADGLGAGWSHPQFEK

ComR E146A/D147A = molecular target: T3, ComR E146A/D147A (Streptococcus thermophilus LMD-9, UniProt PDB:5JUB_1 1-310, E146A;D147A); assay: EMSA; no XIP; ComR 4 uM; strong, multimeric complexes; EMSA: 20 mM Tris-HCl pH 8.0, 150 mM NaCl, 1 mM EDTA, 10% glycerol, 1 mg/ml BSA, 37 C 10 min, 40 ng DNA in 20 ul; crystal: 30% PEG 550 MME, 0.1 M MgCl2, 0.05 M Tris-HCl pH 8.5, 18 C; conditions: protein: recombinant; tags: C-terminal StreptagII; chain copies: 2; label: Cy3 (Methods: Alexa 555), direct strand; blunt
T3 sequence: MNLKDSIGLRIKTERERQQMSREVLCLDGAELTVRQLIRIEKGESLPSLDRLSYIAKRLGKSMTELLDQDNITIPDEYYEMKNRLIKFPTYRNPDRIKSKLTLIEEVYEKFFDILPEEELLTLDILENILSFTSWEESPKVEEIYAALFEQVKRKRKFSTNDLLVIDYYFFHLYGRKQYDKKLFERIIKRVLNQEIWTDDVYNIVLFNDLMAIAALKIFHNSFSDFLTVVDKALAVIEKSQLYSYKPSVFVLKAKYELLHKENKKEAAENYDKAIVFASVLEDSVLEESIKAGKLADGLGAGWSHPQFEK

ComR WT [10] = molecular target: T1, ComR WT; assay: X-ray crystallography; XIP (LPYFAGCL); 0.1 M MgCl2 in crystallization; EMSA: 20 mM Tris-HCl pH 8.0, 150 mM NaCl, 1 mM EDTA, 10% glycerol, 1 mg/ml BSA, 37 C 10 min, 40 ng DNA in 20 ul; crystal: 30% PEG 550 MME, 0.1 M MgCl2, 0.05 M Tris-HCl pH 8.5, 18 C; conditions: protein: recombinant; tags: C-terminal StreptagII; chain copies: 2; blunt

B1: XIP octapeptide (ComS 17-24, LPYFAGCL) from Streptococcus thermophilus LMD-9 (peptide)
peptide: LPYFAGCL
[1]
  Kd: 8 nM
  stoichiometry N: 1.1
[2]
  Kd: 10 nM
  stoichiometry N: 0.8
[3]
  Kd: 1180 nM
  stoichiometry N: 0.8
[4]
  Kd: 141 nM
  stoichiometry N: 0.9
[5]
  Kd: 277 nM
  stoichiometry N: 1.2
[6]
  Kd: 9 nM
  stoichiometry N: 0.8
[7]
  Kd: 87 nM
  stoichiometry N: 1.1
[8]
  Kd: 244 nM
  stoichiometry N: 0.7

B2: Cy3-boxPster_1655 wt (40 bp) (dsDNA)
DNA 1: CAAAATCGAGTAGTGACATTTATGTCACTACTTTTTTGTT
DNA 2: AACAAAAAAGTAGTGACATAAATGTCACTACTCGATTTTG
ComR WT [9]
  binding result: binds
ComR K87A/K246A
  binding result: no binding
ComR E146A/D147A
  binding result: binds

B3: PcomX ComR-box (20 bp) (dsDNA)
DNA 1: TAGTGACATATATGTCTCTA
DNA 2: TAGAGACATATATGTCACTA
ComR WT [10]
  binding result: binds

Reference: paper PMC5131891, “Structural Insights into Streptococcal Competence Regulation by the Cell-to-Cell Communication System ComRS” (PLoS Pathogens, 2016)
